The results in this text go back to patent publication US20240083986A1 (published 2024).

Numbering of substitutions follows the chain as printed. Numbers in names are those of the source.

Test [1] concerns the target T1, European Hornbeam (Car b 1 isoform 1A & 1B, MyBiosource, Cat #MBS1200018) (European Hornbeam, UniProt P38949 2-160).
T1 construct: Bought reagent
T1 sequence (looked up): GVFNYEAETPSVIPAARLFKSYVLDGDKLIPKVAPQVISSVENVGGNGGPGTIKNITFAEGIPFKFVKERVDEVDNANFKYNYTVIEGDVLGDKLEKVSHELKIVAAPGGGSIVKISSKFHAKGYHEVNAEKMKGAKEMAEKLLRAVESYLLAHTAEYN
The test is described as follows: SPR Biacore, 25C. (In general: Surface plasmon resonance follows binding to a sensor surface in real time, without labels.)

In test [2] the target is T2, Apple (Mal d 1, MyBiosource, Cat #MBS1224919) (Apple, UniProt P43211 2-159, limits assumed).
T2 construct: Bought reagent
T2 sequence (looked up): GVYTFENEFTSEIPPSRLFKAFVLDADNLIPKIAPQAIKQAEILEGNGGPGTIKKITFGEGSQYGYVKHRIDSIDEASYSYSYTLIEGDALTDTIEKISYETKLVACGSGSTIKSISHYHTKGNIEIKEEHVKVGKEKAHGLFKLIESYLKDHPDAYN
The experiment in a line: SPR Biacore, 25C.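 Note: binding of related allergens to purified monoclonal anti-Bet v 1 antibodies by surface plasmon resonance in HEPES-buffered saline pH 7.4, kinetics fitted to a 1:1 model with mass transport.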

Test [3] deals with T3, Celery (Api g 1, MyBiosource, Cat #MBS1171376) (Celery, UniProt P49372 1-154, limits assumed).
T3 construct: Bought reagent
T3 sequence (looked up): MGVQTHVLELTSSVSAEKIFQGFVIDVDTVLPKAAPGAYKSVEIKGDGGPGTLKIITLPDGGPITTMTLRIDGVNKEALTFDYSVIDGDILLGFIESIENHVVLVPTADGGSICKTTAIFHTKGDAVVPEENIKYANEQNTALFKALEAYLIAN
The experiment in a line: SPR Biacore, 25C.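 Note: binding of related allergens to purified monoclonal anti-Bet v 1 antibodies by surface plasmon resonance in HEPES-buffered saline pH 7.4, kinetics fitted to a 1:1 model with mass transport.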

Test [4] addresses T4, European Hornbeam (Car b 1 isoform 2, MyBiosource, Cat #MBS1043940) (European Hornbeam, UniProt P38950 2-160, limits assumed).
T4 construct: Bought reagent
T4 sequence (looked up): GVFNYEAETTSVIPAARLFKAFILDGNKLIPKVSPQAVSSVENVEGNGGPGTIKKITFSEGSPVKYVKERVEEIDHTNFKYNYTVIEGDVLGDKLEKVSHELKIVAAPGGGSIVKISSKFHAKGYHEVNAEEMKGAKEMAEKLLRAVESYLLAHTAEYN
The experiment in a line: SPR Biacore, 25C.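 Note: binding of related allergens to purified monoclonal anti-Bet v 1 antibodies by surface plasmon resonance in HEPES-buffered saline pH 7.4, kinetics fitted to a 1:1 model with mass transport.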

Test [5] has as its target T5, Alder (Aln g 1, MyBiosource, Cat #MBS1041484) (Alder, UniProt P38948 2-160, limits assumed).
T5 construct: Bought reagent
T5 sequence (looked up): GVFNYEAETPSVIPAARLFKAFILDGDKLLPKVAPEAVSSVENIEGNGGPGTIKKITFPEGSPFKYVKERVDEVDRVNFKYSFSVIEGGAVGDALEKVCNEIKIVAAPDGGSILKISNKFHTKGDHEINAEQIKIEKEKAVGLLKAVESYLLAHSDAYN
The test is described as follows: SPR Biacore, 25C.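 Note: binding of related allergens to purified monoclonal anti-Bet v 1 antibodies by surface plasmon resonance in HEPES-buffered saline pH 7.4, kinetics fitted to a 1:1 model with mass transport.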

Test [6] deals with T6, natural Bet v 1 (Indoor, Cat #NA-BV1-1) (Betula verrucosa (European white birch, …, UniProt P15494 2-160)).
T6 construct: Bought natural protein purified from birch pollen; also called nBet v 1
T6 sequence: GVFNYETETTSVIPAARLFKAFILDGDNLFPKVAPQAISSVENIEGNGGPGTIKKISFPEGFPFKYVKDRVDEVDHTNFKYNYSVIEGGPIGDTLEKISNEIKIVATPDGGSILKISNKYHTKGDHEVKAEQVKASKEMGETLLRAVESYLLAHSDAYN
The test is described as follows: SPR Biacore, mAb captured on anti-hFc, 25C.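 Note: rate constants from sensorgrams fitted to a 1:1 model with mass transport limitation, KD and t½ derived from kinetic constants, run in HBS-ET buffer at pH 7.4.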

In test [7] the target is T6, natural Bet v 1 (Indoor, Cat #NA-BV1-1). The test is described as follows: SPR Biacore, mAb captured on anti-hFc, 37C.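 Note: purified anti-Bet v 1 monoclonal antibodies, HBS-ET running buffer pH 7.4, rate constants from 1:1 model fit with mass transport limitation, KD and t½ calculated from kinetic constants.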
The next test addresses T7, mutant Bet v 1-MMH (Betula verrucosa (European white birch, …)).
T7 construct: also called CHO produced recombinant Bet v 1 containing a S85A mutation with a C-terminal myc-myc hexahistidine tag
T7 chain: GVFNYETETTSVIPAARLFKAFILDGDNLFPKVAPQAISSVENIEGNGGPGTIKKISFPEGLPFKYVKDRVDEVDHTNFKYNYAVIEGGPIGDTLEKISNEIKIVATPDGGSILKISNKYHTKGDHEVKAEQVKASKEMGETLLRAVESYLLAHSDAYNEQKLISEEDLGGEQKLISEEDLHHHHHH
The test is described as follows: BLI Octet HTX, mutant Bet v 1-MMH captured on anti-Penta-His tips, 25C. On the technique in general: Biolayer interferometry detects binding as a change in optical thickness at a sensor tip.

Test [8] addresses T8, natural Bet v 1 (Betula verrucosa (Betula pendula), UniProt P15494 2-160).
T8 construct: bought natural protein (Indoor Biotechnologies #NA-BV1-1); also called nBet v 1; Biotinylated Bet v 1
T8 chain: T6 sequence with F62L
The experiment in a line: blocking ELISA, biotin nBet v 1 to captured IgE, donor 29718-MW.

In test [9] the target is T8, natural Bet v 1. The test is described as follows: blocking ELISA, biotin nBet v 1 to captured IgE, donor 23035-BL.
Test [10] addresses T8, natural Bet v 1. The test is described as follows: blocking ELISA, biotin nBet v 1 to captured IgE, donor 25299-RJ.
Test [11] concerns the target T8, natural Bet v 1. The experiment in a line: dose-response blocking ELISA, biotin nBet v 1 to captured IgE, donor 23939-MH.
Test [12] deals with T8, natural Bet v 1. The experiment in a line: blocking ELISA, biotin nBet v 1 to captured IgE, donor 26532-CC. (In general: ELISA stands for enzyme-linked immunosorbent assay.)
Test [13] has as its target T8, natural Bet v 1. The experiment in a line: blocking ELISA, biotin nBet v 1 to captured IgE, donor 25609-MS.
For test [14], the target named is T8, natural Bet v 1. The test is described as follows: blocking ELISA, biotin nBet v 1 to captured IgE, donor 23939-MH.
Test [15] deals with T8, natural Bet v 1. The experiment in a line: blocking ELISA, biotin nBet v 1 to captured IgE, donor 25414-CW.
Test [16] deals with T8, natural Bet v 1. The test is described as follows: dose-response blocking ELISA, biotin nBet v 1 to captured IgE, donor 25609-MS.
For test [17], the target named is T8, natural Bet v 1. The test is described as follows: dose-response blocking ELISA, biotin nBet v 1 to captured IgE, donor 25340-RR.
The target in test [18] is T8, natural Bet v 1. The test is described as follows: blocking ELISA, biotin nBet v 1 to captured IgE, donor 25340-RR.

B1: H4H17045P2 (antibody, human IgG4, V domains shown)
VH: EVQLVESGGGLVQPGVSLRLSCVASGFTFSNYDITWIRQIPGKGLEWVSRISGSGGSTYFADSVKGRFIISRDNSKNTVYMQMNSLRAEDSAVYYCARRDSVLFSMNSWLDPWGQGTLVTVSS
VL: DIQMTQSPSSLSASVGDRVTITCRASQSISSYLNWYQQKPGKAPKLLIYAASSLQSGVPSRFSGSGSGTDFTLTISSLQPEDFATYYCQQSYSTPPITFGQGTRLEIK
B1: the binding result in [1], in test [2], in test [3], in test [4] and in test [5] was “no binding (tested: 100 nM)” each time. Besides, the “100 nM natural Bet v 1 Bound (RU)” value in test [6] stood at 69 RU; in [7] it was 90 RU. Also, the Kd was found to be 1.22 nM in test [6] and 1.86 nM in test [7]. In addition, the koff in test [6] was 0.000149 s⁻¹; in test [7], 0.000441 s⁻¹. Besides, the results for the kon in [6] and in [7] were 122000 M⁻¹ s⁻¹ and 237000 M⁻¹ s⁻¹, respectively. The t½ in test [6] amounted to 78 min; in [7], 26 min.

B2: H4H17015P (antibody, human IgG4, V domains shown)
VH: QVQLQESGPGLVKPSQTLSLTCTVSGGSISSADHYWSWIRQQPGKGLEWIGYISYRGTTYYNPTLESRVSISVDTFKNQFSLMLHSVTVADTAVYYCAKVLQGLVRFRDYGFDVWGQGTTVTVSS
VL: DIQLTQSPPFLSASVGDRVTITCWASQDISSYLAWYQQNPGKSPKLLIYDAFTLHTGVPSRFSGSGSGTEFTLTISSLQPEDFATFYCQHLYSFPFTFGPGTKVDIK
B2: the binding result in test [1], in [2], in [3], in test [4] and in [5] was “no binding (tested: 100 nM)” throughout. Moreover, the entries for the “100 nM natural Bet v 1 Bound (RU)” value in [6] and in [7] were 68 RU and 84 RU, respectively. Moreover, the Kd in test [6] was 1.34 nM; in test [7] it was 2.7 nM. The off-rate (koff) in test [6] was determined as 0.000246 s⁻¹; in test [7], 0.000792 s⁻¹. The kon in [6] was 184000 M⁻¹ s⁻¹; in [7] it was 293000 M⁻¹ s⁻¹. The figures for the t½ in test [6] and in [7] were 47 min and 15 min, respectively.

B3: H4H17001P (antibody, human IgG4, V domains shown)
VH: QVQLVESGGGLVKPGGSLRLSCAASGFTFSDYYMNWIRQAPGKGLEWISLISSSGSAIYYSDSVKGRFTISRDNARKSLYLQVNSLRAEDTAVYYCARDRGEWALGAYYYGLDVWGQGTTVTVSS
VL: DIVMTQSPLSLPVTPGEPASISCRSSQSLLHSDGYNYLDWYLQKSGQSPQLLIYLGSNRASGVPDRFSGSGSGTDFTLKISRMEAEDVGVYYCMQALQTPYTFGQGTKLEIK
For the molecule B3, the binding result in [1] is “no binding (tested: 100 nM)”. Also, in test [2], the binding result is “no binding (tested: 100 nM)”. In addition, the binding result in test [3] is “no binding (tested: 100 nM)”. Moreover, in test [6], the “100 nM natural Bet v 1 Bound (RU)” value stood at 71 RU, the Kd was determined as 1 nM, the koff is 0.000329 s⁻¹ and the kon came to 329000 M⁻¹ s⁻¹. The molecule further came in with a t½ in test [6] of 35 min. For the same molecule, in test [7], the “100 nM natural Bet v 1 Bound (RU)” value stood at 87 RU, the Kd amounted to 2.52 nM, the koff was found to be 0.00122 s⁻¹ and the kon is 485000 M⁻¹ s⁻¹. In addition, in test [7], the t½ is 9.5 min. The binding result in the test with mutant Bet v 1-MMH is “no binding (tested: 50 µg/mL)”.

B4: H4H17082P2 (antibody, human IgG4 S228P, kappa, V domains shown)
VH: QVQLVQSGAEVKKPGASVKVSCKASGYTFISYNIFWVRQATGQGLDWMGWMNPFRNNAGYAQKFQGRVTVTWDTSISTAYMELSSLSSEDTAIYYCAREHGSSWGFFDYWGQGTLVTVSS
VL: not shown
notes: fully human, human IgG4 Fc (H4H prefix); also called MAB2; REGN5715
B4: the “Percent Blocking (at 1 µg/mL each antibody)” value was 49% with natural Bet v 1 [8]; 52% in the test with natural Bet v 1 [9]; 66% in the test with natural Bet v 1 [10]; 82.9% with natural Bet v 1 [11]; 74% in the test with natural Bet v 1 [12]; 51% with natural Bet v 1 [13]. In addition, the “Percent Blocking (at 1 µg/mL each antibody)” value was determined as 79% with natural Bet v 1 [14]; 38% with natural Bet v 1 [15]; 56.4% in the test with natural Bet v 1 [16]; 82.7% with natural Bet v 1 [17]; 81% with natural Bet v 1 [18].

B5: H4H17067P2 (antibody, human IgG4, V domains shown)
VH: EVQLVQSGAEVKKPGESLKISCSGSGYRFTNYWIAWVRQMPGKGLEWMGLIHPDDSDIRYSPSFQGQVTFSVDKSINTAYLQWSSLKASDTAMYYCTRQDGILWSHNAWFDPWGQGTLVTVSS
VL: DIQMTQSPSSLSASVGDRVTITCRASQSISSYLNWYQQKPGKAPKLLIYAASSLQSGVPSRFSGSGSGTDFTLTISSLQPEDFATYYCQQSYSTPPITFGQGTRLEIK
On to B5, for which the binding result in test [1], in [2], in [3], in test [4] and in test [5] was “no binding (tested: 100 nM)” throughout. In addition, the “100 nM natural Bet v 1 Bound (RU)” value in [6] turned out to be 58 RU; in test [7], 80 RU. The Kd in test [6] turned out to be 3.56 nM; in test [7], 5.48 nM. In addition, the off-rate (koff) in test [6] is 0.000402 s⁻¹; in [7] it was 0.00147 s⁻¹. Besides, the figures for the kon in [6] and in [7] were 113000 M⁻¹ s⁻¹ and 268000 M⁻¹ s⁻¹, respectively. Besides, the t½ was found to be 29 min in test [6] and 7.9 min in test [7].

A word on the Kd: it is the concentration at which binding is half-saturated. The low end stands for tighter binding, the high end for weaker binding. A word on the koff: it is the first-order rate constant of dissociation. A high value points to fast dissociation. By kon is commonly meant the rate constant with which the complex forms. Usually t½ stands for the time in which the quantity being followed falls by half. The low end stands for rapid decline, the high end for slow decline.
